Measurements reported in the DeepSol protein solubility set.

Assay: soluble on expression in E. coli; label from the status in PepcDB or PDB records

Soluble on expression in E. coli, not soluble:
MGSDKIHHHHHHMSKIGLTTTVPVEVIYAAGDTPVDLNNIFISDTREAMLRIEEAELAGYPRNVCGWIKGLYATALKSPEIKKIVAVTQGDCSNTHALMETWSEEGIEIIPFAFPYDRDGDMLRLQLEKLITALGTTWDQVREQKVRLDQVRQLAWEIDRLTWQENQVRGFENHLHLVSCSDFNGDPEGFARDLEGFIAEAREREPLNLQFKGRKKRELRLGFMGVPPIMPDLYNFLEEHGARVVFNEVQRQFSMPFATEDIVEQYQLYTYPYNVFGRIEDVAQEAERRQLDGLIHYTQSFCYRQIEDLIVRRRLDYPILNLEGENPTGLDARSKMRLESFLQMLRD, MGSDKIHHHHHHMSKKVVLTREASKNKPWQTYFSQNGYEVMSIPLIKTQPIKINLTREQQETDWLFLTSANAVEYFFTNQYERSNYKIAVIGEKTKEKLAEFGHEPSFVPSIYQSEVFLEEWLNENPEKTSILLPQSNLSRTIIKDTLIEKGYIVFSIELYETIFPEASKKLLTEQLKLNETQIIVFASPSAWKNFYSIAKSFPAQKEKWHIASIGSITTEAILADGWEVKYQPKTFTMKHLADLIIQEELK, MGSDKIHHHHHHMSKLIETRGLTKKYPGVVALDHVDFDLEPGEVHVLFGENGAGKSTLISMLAGANAPSEGRLLLNGEEVQFESVADAQAKGIYTVFQEFSLIPTLTVAQNIFLGWELRFGPFLDHRAMRARAREMLAELGFDIDPAAIVAQLSRAQQQMVEITKAFHGDLNVLILDEPTASLTDREVDHLFEFVAKLKAQGVGIVYISHRIQEFERIAERVTVLRDGAVIGTVAMAETDEDALVEMMTGRAFDQIYPSITFSPGETLLEVSDLTAPGISGACFQVRRGEVLGVAGLVGSGKSRLFRAVMGLTPVQSGSIRFKGADITNAPTRKIITRGMYYLSPDRKAEGLDLAKNARDNLAVNIISGQRHSGHGPFIPWGAVNARIDQISDHVELHAGYRSKPTSQLSGGNQQKVLFGKCFGQDADLIIFDEPTVGVDMGTRAALYLLIKELAEAGKAIVVISSDLPEAMNIAHRLLVLAHGTITARLSADEMSEDTVLKYFFDETGASQ, MGSDKIHHHHHHMSKNNNPVEQLLKEKPYILLDGALATELERHGRNLDDPLWSARVLLEEPEQIHRVHANYFKIGADCAITSSYQASVAGFSSRGIKEEEAIELMKQTVYLAQQARAETGPAADHALIAGSIGPYGAYLSDGSEYIGHYGVDDAQLEAFHRPRLEALIAAGADVLAFETIPSLQEAKMLFRLLEEFPEQSAWLAFSLRDATHISEGTPLSECIEALGDHPQLAAIGANCFPASIATEFITTLKQLTDVPIIVYPNSGEQYDPVSKTWSGETVRTAFEDIAPEWYAAGARLIGGCCRTTPEQIGEIRKIVHAQ, MGSDKIHHHHHHMSKSLIRIAPGALTIGKPLPWDVFDSEGNILLRQGYVIQTNSQLEQLFERGRFKPRKIERPKEETFEDLRQRNPFAEYGDLLTTLEVTLNAITSEDPTAQKRLLGLCRMLDKTCQEAPDASLALVHLYSISPTIHEQILFYGILCHFIARQFGLEEKRATVLTAAALTANLALVPVADQLNASNTVLTDDQRAVIRKHPARSIQALTSAGINNKLLLRIIAQHHEQADGSGYPEGLSGSDILPEAEILALAERYVAMITKRAYRNRMNITEARKLIATLADGKFRPAIPRSLLQVLGDHPPGMLVRLVNNEVGVVTRRADRTRGPFVKAIFGPRGNRYNGTFERDTSLLEYNVRAPEEPEIMPSMDFSMLWGFRS, MGSDKIHHHHHHMSLCYEEALFLEKDLERLKALRTIAPMNEILDHAEVAALAEGIGKAVLGETITQVIDDYRKQLLGDKSFAASMSHLSRQEITLHLVQELKDKLDAQDSTCLKKLINATGIVLHTNLGRAPLPDSAIGLIQEVNEGYSNLEFDLETGNRGSRHTHIEPLITRLTGAESAMVVNNNAAAVFISLNTLAKQRDVIISRGQQVEIGGSFRIPDIIASSGCTMIEVGTTNKTKPDDYAKAITENTAVLLKVHTSNYKISGFTEEVPLQDLVELGKIKNVLVMEDLGSGCLYDLSKIGLPHEPTVQEVIAGGADLVTFSGDKLLGGPQIGVIAGKKALIDKIKKNSFARIVRCDKSSIAALTAVLKLYMNPEKALAQIPALNMLALKEADLLLRAEELERQLQAALGERCQVEIVDVHDEAGGGSLPDVLLKGKAVSLTIDGLSANRLQELLRQEPIPIICRIVKDKVLLNVRTMSEKEFPLITQTMQNIVG
